For this test, the target named is wild-type human γS-crystallin (human) (UniProt P22914). The experiment in a line: SEC-MALS.

The record followed here is publication PMC9081212.

As for “wild-type human γS-crystallin (from UniProt P22914 1-178) (natural protein)”, the stoichiometry N was 2.

What is called stoichiometry N is a count of units in the complex or per binding partner.
